Test [1] addresses T1, human CAIX antigen on A549 cells (human, UniProt Q16790 38-459). Kind of test: FACS, A549 cells, 1 µg/ml purified protein (FIG. 26). The protocol: FIG. 26: FACS binding analysis of cross-species specific bispecific single chain construct CAIX HL×SEQ ID NO. 194 to HPB-ALL (human CD3+), cynomolgus PBMC (cynomolgus CD3+), A549 (human CAIX+) and CYNOM-KI (cynomolgus CAIX+) cells, respectively. The FACS staining was performed as described in Example 23. The thick line represents cells incubated with 1 μg/ml purified monomeric protein that were subsequently incubated with the anti-his antibody and the PE labeled detection antibody. The thin histogram line reflects the negative control: cells only incubated with the anti-his antibody and the detection antibody.
In order to test the functionality of the cross-species specific bispecific antibody constructs with regard to binding capability to human and cynomolgus EGFR and CD3, respectively, a FACS analysis was performed. For this purpose the EGFR positive epidermoid carcinoma A431 cells (ATCC, CRL-1555) and CD3 positive human T cell leukemia cell line HPB-ALL (DSMZ, Braunschweig, ACC483) were used to check the binding to human antigens. […] The cells were washed twice in PBS and binding of the construct was detected with an unlabeled murine Penta His antibody (diluted 1:20 in 50 μl PBS with 2% FCS; Qiagen; Order No. 34660). After washing, bound anti His antibodies were detected with an Fc gamma-specific antibody (Dianova) conjugated to phycoerythrin, diluted 1:100 in 50 μl PBS with 2% FCS. […]
(A flow cytometer gives signals particle by particle.)

For test [2], the target named is T2, cynomolgus EpCAM antigen on transfected CHO cells (cynomolgus, UniProt Q1WER1 24-265 (rhesus entry)).
T2 construct: 48 holds the extracellular portion
T2 sequence: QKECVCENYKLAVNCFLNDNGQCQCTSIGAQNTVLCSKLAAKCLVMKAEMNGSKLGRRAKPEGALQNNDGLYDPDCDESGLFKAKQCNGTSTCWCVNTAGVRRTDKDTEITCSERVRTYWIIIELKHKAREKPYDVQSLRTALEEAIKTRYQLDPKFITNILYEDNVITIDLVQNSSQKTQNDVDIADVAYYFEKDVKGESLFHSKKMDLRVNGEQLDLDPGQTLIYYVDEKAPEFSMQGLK
As to the kind of experiment: FACS on cynomolgus EpCAM transfected CHO cells against untransfected cells. The protocol:
FIG. 7: FACS assay for the detection of the cynomolgus EpCAM antigen on transfected CHO cells. Supernatants of three different anti human EpCAM hybridomas (M79, 3B10, 2G8) were tested for binding.
To generate a cell line positive for cynomolgus EpCAM, a clone of the aforementioned coding sequence of the cynomolgus EpCAM antigen subcloned into pEFDHFR with a verified nucleotide sequence was transfected into DHFR deficient CHO cells for eukaryotic expression of the construct as described in Kaufmann R. J. (1990) Methods Enzymol. 185, 537-566). Gene amplification of the construct was induced by increasing concentrations of MTX to a final concentration of up to 500nM MTX. The transfected cells were then tested for expression of cynomolgus EpCAM using an FACS assay. For that purpose, a number of 2.5×10⁵ cells was incubated with 50 μl supernatant three different mouse anti human EpCAM hybridomas (M79—Fogler et al., Cancer Res. 48 (1988); p. 6303-8; 3B10—Passlick et al. Int. J. Cancer 87 (2000), p. 548-552; 2G8—Balzar et al., J. Mol. Med. 77 (1999), p. 699-712). […] The samples were measured on a FACSscan (BD biosciences, Heidelberg, FRG). The anti EpCAM antibody 2G8 was recognized as cross-species specific and the expression of cynomolgus EpCAM was confirmed (see FIG. 7).

The target of test [3] is T1, human CAIX antigen on A549 cells. As to the kind of experiment: FACS, A549 cells, 1 µg/ml purified protein (FIG. 28).
The target of test [4] is T3, human EpCAM antigen on Kato III cells or human EpCAM transfected CHO cells (human, UniProt P16422 24-265).
T3 construct: 137 holds only the extracellular portion; the protein stood whole on cells
T3 sequence: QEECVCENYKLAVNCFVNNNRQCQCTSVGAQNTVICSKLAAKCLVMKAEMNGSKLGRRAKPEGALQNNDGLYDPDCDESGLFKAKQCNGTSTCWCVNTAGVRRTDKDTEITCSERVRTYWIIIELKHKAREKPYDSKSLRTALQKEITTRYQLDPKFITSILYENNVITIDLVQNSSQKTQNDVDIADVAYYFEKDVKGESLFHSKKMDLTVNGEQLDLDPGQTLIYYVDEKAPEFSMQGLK
As to the kind of experiment: FACS, Kato III cells or human EpCAM transfected CHO cells, anti-His detection. As for the experimental part:
FIG. 3: FACS assay for binding of 5-10LH×SEQ ID NO. 12, 5-10LH×SEQ ID NO. 10, 5-10LH×SEQ ID NO. 16 and 5-10LH×SEQ ID NO. 14 to human Kato III cells expressing EpCAM or human EpCAM transfected CHO cells and to HPB-ALL cells. Cells bound by the respective constructs (depicted as non-filled curves) are shown in comparison to cells incubated only with the detection antibodies (depicted as filled curves). Antigen binding of all bispecific constructs was clearly detectable for the anti human EpCAM specificity as well as for the anti CD3 specificities on the HPB-ALL cell line positive for human CD3.
Binding of the bifunctional constructs to the EpCAM antigen on human Kato III cells expressing EpCAM (ATCC No. HTB-103) or on human EpCAM transfected CHO cells and to the human CD3 antigen on HPB-ALL cells was tested using an FACS assay. For that purpose 2.5×10⁵ cells were incubated with 50 μl of cell culture supernatant containing the construct. The binding of the construct was detected with an anti-His antibody (Penta-His Antibody, BSA free, obtained from Qiagen GmbH, Hilden, FRG) at 2 μg/ml in 50 μl PBS with 2% FCS. […] The samples were measured on a FACSscan (BD biosciences, Heidelberg, FRG). Antigen binding was clearly detectable for the anti human EpCAM specificity as well as for the anti CD3 specificities on the cell line positive for human CD3 (see FIG. 3).

The target in test [5] is T1, human CAIX antigen on A549 cells. Kind of test: FACS, A549 cells, 1 µg/ml purified protein (FIG. 27).

B1: CAIX HL × SEQ ID NO. 194 (bispecific antibody)
chain: DVKLVESGGGLVKLGGSLKLSCAASGFTFSNYYMSWVRQTPEKRLELVAAINSDGGITYYLDTVKGRFTISRDNAKNTLYLQMSSLKSEDTALFYCARHRSGYFSMDYWGQGTSVTVSSGGGGSGGGGSGGGGSDIVMTQSQRFMSTTVGDRVSITCKASQNVVSAVAWYQQKPGQSPKLLIYSASNRYTGVPDRFTGSGSGTDFTLTISNMQSEDLADFFCQQYSNYPWTFGGGTKLEIKSGGGGSQTVVTQEPSLTVSPGGTVTLTCRSSTGAVTTSNYANWVQQKPGQAPRGLIGGTNKRAPGTPARFSGSLLGGKAALTLSGVQPEDEAEYYCALWYSNLWVFGGGTKLTVLGGGGSGGGGSGGGGSEVQLVESGGGLVQPGGSLKLSCAASGFTFNTYAMNWVRQAPGKGLEWVARIRSKYNNYATYYADSVKDRFTISRDDSKNTAYLQMNNLKTEDTAVYYCVRHGNFGNSYVSWFAYWGQGTLVTVSSHHHHHH
notes: the appendix prints the entry with HHHHHH and then *VD at its end
For B1, the binding result in test [1] is “binds”.

B2: anti EpCAM antibody 2G8 (antibody, V domains shown)
VH: EVQLQQSGAELVRSGASVKLSCTASGFNIKDYYLHWVKQRPEQGLEWIAWIDLENGDIKYAPKFQGKATITADTSSNTAYLQLSSLTSEDTAVYYCNPYYYGSNYDYAMDYWGQGTSVTVSS
VL: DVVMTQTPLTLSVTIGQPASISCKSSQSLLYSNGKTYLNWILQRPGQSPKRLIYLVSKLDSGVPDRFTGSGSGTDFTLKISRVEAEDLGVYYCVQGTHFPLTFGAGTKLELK
notes: mouse hybridoma supernatant; also called 2G8 hybridoma
Take B2: in test [2], the binding result is “binds”.

B3: CAIX LH × SEQ ID NO. 170 (bispecific antibody)
chain: DIVMTQSQRFMSTTVGDRVSITCKASQNVVSAVAWYQQKPGQSPKLLIYSASNRYTGVPDRFTGSGSGTDFTLTISNMQSEDLADFFCQQYSNYPWTFGGGTKLEIKGGGGSGGGGSGGGGSDVKLVESGGGLVKLGGSLKLSCAASGFTFSNYYMSWVRQTPEKRLELVAAINSDGGITYYLDTVKGRFTISRDNAKNTLYLQMSSLKSEDTALFYCARHRSGYFSMDYWGQGTSVTVSSSGGGGSEVQLVESGGGLVQPGGSLKLSCAASGFTFNTYAMNWVRQAPGKGLEWVARIRSKYNNYATYYADSVKDRFTISRDDSKNTAYLQMNNLKTEDTAVYYCVRHGNFGNSYVSWFAYWGQGTLVTVSSGGGGSGGGGSGGGGSQTVVTQEPSLTVSPGGTVTLTCRSSTGAVTTSNYANWVQQKPGQAPRGLIGGTNKRAPGTPARFSGSLLGGKAALTLSGVQPEDEAEYYCALWYSNLWVFGGGTKLTVLHHHHHH
notes: as for B1
Turning to B3, the binding result in test [3] is “binds”.

B4: 5-10LH×SEQ ID NO. 16 bispecific single chain antibody (bispecific antibody)
chain: ELVMTQSPSSLTVTAGEKVTMSCKSSQSLLNSGNQKNYLTWYQQKPGQPPKLLIYWASTRESGVPDRFTGSGSGTDFTLTISSVQAEDLAVYYCQNDYSYPLTFGAGTKLEIKGGGGSGGGGSGGGGSEVQLLEQSGAELVRPGTSVKISCKASGYAFTNYWLGWVKQRPGHGLEWIGDIFPGSGNIHYNEKFKGKATLTADKSSSTAYMQLSSLTFEDSAVYFCARLRNWDEPMDYWGQGTTVTVSSGGGGSQVVLTQSPAIMSAFPGEKVTMTCSASSSVSYMNWYQQKSGTSPKRWIYDSSKLASGVPARFSGSGSGTSYSLTISSMETEDAATYYCQQWSRNPPTFGGGTKLQITGGGGSGGGGSGGGGSQVQLQQSGAELARPGASVKMSCKASGYTFTRSTMHWVKQRPGQGLEWIGYINPSSAYTNYNQKFKDKATLTADKSSSTAYMQLSSLTSEDSAVYYCASPQVHYDYNGFPYWGQGTLVTVSAHHHHHH
On to B4, for which, in test [4], the binding result is “binds”.

B5: CAIX HL × SEQ ID NO. 170 (bispecific antibody)
chain: DVKLVESGGGLVKLGGSLKLSCAASGFTFSNYYMSWVRQTPEKRLELVAAINSDGGITYYLDTVKGRFTISRDNAKNTLYLQMSSLKSEDTALFYCARHRSGYFSMDYWGQGTSVTVSSGGGGSGGGGSGGGGSDIVMTQSQRFMSTTVGDRVSITCKASQNVVSAVAWYQQKPGQSPKLLIYSASNRYTGVPDRFTGSGSGTDFTLTISNMQSEDLADFFCQQYSNYPWTFGGGTKLEIKSGGGGSEVQLVESGGGLVQPGGSLKLSCAASGFTFNTYAMNWVRQAPGKGLEWVARIRSKYNNYATYYADSVKDRFTISRDDSKNTAYLQMNNLKTEDTAVYYCVRHGNFGNSYVSWFAYWGQGTLVTVSSGGGGSGGGGSGGGGSQTVVTQEPSLTVSPGGTVTLTCRSSTGAVTTSNYANWVQQKPGQAPRGLIGGTNKRAPGTPARFSGSLLGGKAALTLSGVQPEDEAEYYCALWYSNLWVFGGGTKLTVLHHHHHH
notes: as for B1
For the molecule B5, the binding result in test [5] is “binds”.

The values above are taken from patent US20090252683A1 (Amgen, published 2009).
